From the supplement of paper PMC9170038

The sequences below were run on MS2 coat protein (assay: apparent KD of MS2 coat protein, switch ON state; designed switch direction (-1 OFF switch, 1 ON switch): -1; higher = weaker reporter binding). Details: FMN input: 0 or 200 uM; Eterna round: R93 (includes R88 designs).
Procedure, shortened: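 Illumina sequencing clusters were used for on-chip transcription of designed RNA switches. Titration with SNAP-549-labelled MS2 coat protein followed, in twofold steps from 0.7 or 1.5 nM to 3 µM in 100 mM Tris-HCl pH 7.5, 80 mM KCl, 4 mM MgCl2, without or with constant ligand. Apparent KD is each design's median of fits to normalised cluster binding curves.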
For “AGCACGUCAGGAUAUACGAAAAAAAAGGGUAAAAAAAACACACAUGAGGAUCACCCAUGUAGAAGGGACAAGCA [Diamond 94]”, the “apparent KD of MS2 coat protein” value was 66.8 nM.
In the case of “AAUGCGGCAGGAUAUACAUGAGGAUCACCCAUGUAGAUCAGAUAUAUGGGAAAACCAUGUAGAAGGGCCGCAAA [Ex 3May 60]”, the “apparent KD of MS2 coat protein” value is reported as 109 nM.
In the case of “AACAGUACAGGAUAUACAUGAGGAUCACCCAUGUAAAAAAAGGGUGGCGUACCACGAAGUAGAAGGGUACUGGA [Moding Maslow revisited (73) 11]”, the “apparent KD of MS2 coat protein” value is reported as 187 nM.
For “CUCUUGUCAGGAUAUCUAAGAAAAGAAAAGAAAGAAAAGAAAGAGAAGGGACAUGAGGAUCACCCAUGUAAGAA [EteRNA is fun!]”, the “apparent KD of MS2 coat protein” value was 46.3 nM.
In the case of “GAAAAGUCAGGAUAUACAGAAAAAAAAACGAAAAAAAAUCUGUAGAAGGGACAUGAGGAUCACCCAUGUAAAAA [Mat - Exclusion 4 - Mayanna - D122]”, the “apparent KD of MS2 coat protein” value is reported as 51.4 nM.
With “AGAAAGUCAGGAUAUGUACAAAAUAAAAUAAAAAUAAAAGUACAGAAGGGACAUGAGGAUCACCCAUGUAAAGA [Mat - Exclusion 4 - Mayanna - D121]” the “apparent KD of MS2 coat protein” value was 50.2 nM.
For “AGAAAGGCAGGAUAUACAUGAGGAUCACCCAUGUUAAGAAAGACGGAAACGUCAAGAAGUAGAAGGGCCAAGAA [Shaken, but not stirred]”, the “apparent KD of MS2 coat protein” value was 21.9 nM.
For “AAAAAGGUAGGAUAUGCAAAAAAUAAUUUAAAAAAAAAAAAACAUGAGGAUCACCCAUGUAGAAGGACCAAAAA [Design 2.0]”, the “apparent KD of MS2 coat protein” value was 25.9 nM.
For “GAAAAGUGAGGAUAUACAUGAGGAUCACCCAUGUGUAUAAAAAAAUACACAAAAGAAAGUAGAAGGCACUAAAG [Mat - Exclusion 3 - Mayanna mod - D110]”, the “apparent KD of MS2 coat protein” value was 23.1 nM.
With “AAAAAACAUGAGGAUCACCCAUGUGAGGAUAUUGGUAUUGAGGGUAUAAUCUCAAUAGCGAGAAGGCGCAUAAA [Brourd 613 Mod 14 - Jieux - Exclusion 1]” the “apparent KD of MS2 coat protein” value was 31.7 nM.
With “AAACCACAUGAGGAUCACCCAUGUCAGGAUAUGAACGAAAUAAAAUAAAAAUAAAAGUUCAGAAGGGACGAAAA [Mat - Exclusion 1 - Eli mod - D17]” the “apparent KD of MS2 coat protein” value was 27.3 nM.
For “GAAAAUGGAGGAUAUACAUGAGGAUCACCCAUGUGUAAAAAAAAUUACACAAAAGAAAGUAGAAGGCCAUAAAA [Mat - Exclusion 3 - Mayanna mod - D107]”, the “apparent KD of MS2 coat protein” value was 66.4 nM.
For “AAAAAGAUAGGAUAUACGAACAUGUCGAAAGACGUGAAGGGACAUGAGGAUCACCCAUGUAGAAGGAUUAAAAA [Mat - Exclusion 2 - JL mod - D89]”, the “apparent KD of MS2 coat protein” value was 41.9 nM.
“ACAGUUACAGGAUAUACAAAGGUAACUUCAAAGAAAACUCUACAUGAGGAUCACCCAUGUAGAAGGGUAACUGA [Ex2 Design 200 (probably): Random 17]” was tested, and the “apparent KD of MS2 coat protein” value was 14.3 nM.
“AGUAUCACAGGAUAUACAUAGGUGAAAAAAGUAAAUCCACUACAUGAGGAUCACCCAUGUAGAAGGGUGAUACA [Ex2 Design 177: Random 4B]” was tested, and the “apparent KD of MS2 coat protein” value was 69.9 nM.
For “GAAAACAGAGGAUAUACAAAAUUGACACGAAAGGUGCAAAAACAUGAGGAUCACCCAUGUAGAAGGCUGAAGAA [Meechl MS2 Ex2 3]”, the “apparent KD of MS2 coat protein” value was 25.3 nM.
With “CUCGUGUCAGGAUAUGGAAGGCCGUUUGAUUAACGAGGGUACUAGAAGGGACAUGAGGAUCACCCAUGUAAAAA [Maonis]” the “apparent KD of MS2 coat protein” value was 81.5 nM.
With “AACUGACAUGAGGAUCACCCAUGUCAGGAUAUGAUUUGACGAAAAAAAACACGUCAUAUCAGAAGGGACAUGGA [Design 85: Sub-opt X]” the “apparent KD of MS2 coat protein” value was 23.7 nM.
In the case of “AAAAAACAUGAGGAUCACCCAUGUAAGGAUAUGCUAGGAAAAAGAAAAAUAAAAACUAGCAGAAGGUACAUGAA [JL wbt mod 11]”, the “apparent KD of MS2 coat protein” value is reported as 33.2 nM.
“AAGAAACAUGAGGAUCACCCAUGUCAGGAUAUGAAAAAGAAAAGAAAAGAAAGAAGAAUCAGAAGGGACAAAGG [Neferkauhor Khuwihapi]” was tested, and the “apparent KD of MS2 coat protein” value was 74.1 nM.
In the case of “AGUCGGCGAGGAUAUACAUGAGGAUCACCCAUGUGAGAGAAAAAAGUGAGUUAGACAUGUAGAAGGCGCUGACA [JL Lego Mod 8]”, the “apparent KD of MS2 coat protein” value is reported as 54 nM.
“GAAAACAGAGGAUAUACAUGAGGAUCACCCAUGUAAAAAUGUAGAAGGCUGAAAGAAAGAAGAAGGAAAGAAAA [Meechl Ex3 R2 m2]” was tested, and the “apparent KD of MS2 coat protein” value was 24.2 nM.
With “AAGGUACGAGGAUAUACAUAGAUACAAACACAUGUGGAUGUACAUGAGGAUCACCCAUGUAGAAGGCGUAUAUA [AJ 22]” the “apparent KD of MS2 coat protein” value was 58.6 nM.
For “ACCUAACAUGAGGAUCACCCAUGUGAGGAUAUAGACGUGAAUUAAACACGUAACAAAACUAGAAGGCACUGGGC [Erbeardi]”, the “apparent KD of MS2 coat protein” value was 26.1 nM.
“UACAGACAUGAGGAUCACCCAUGUGAGGAUAUUCAUAACGAUAUUACAAGUAUGACAGGAAGAAGGCACAGCAA [JR_Exc001_Sub010]” was tested, and the “apparent KD of MS2 coat protein” value was 45 nM.
For “AAAAGGUGAGGAUAUACAUGAGGAUCACCCAUGUAGAAAGGAAGUGUAAAAAAAAAGUGUAGAAGGCAUCAUGA [MS2 Riboswitches On Chip Exclusion 3 wbt3]”, the “apparent KD of MS2 coat protein” value was 39.2 nM.
“AAGCUGGUAGGAUAUACUAGGGCAACUAAUGCACCGAGAGGACAUGAGGAUCACCCAUGUAGAAGGGCCAGAAA [Mat - Exclusion 2 - JL mod - D63]” was tested, and the “apparent KD of MS2 coat protein” value was 114 nM.
For “AAGAACCUAGGAUAUACAAAAUAAAAGAAAAGAAAGAAAGAACAUGAGGAUCACCCAUGUAGAAGGAGGAAGAA [Renseneb]”, the “apparent KD of MS2 coat protein” value was 48.3 nM.
With “AAAAAGAGAGGAUAUACAUGAGGAUCACCCAUGUAAAAAAGAAGAAAGAAAAAAAAAUGUAGAAGGCUCAAAAA ['Exclusion 3']” the “apparent KD of MS2 coat protein” value was 35.9 nM.
With “AAAAAGGUAGGAUAUACGAAAAAAAAAAGGUGAAAAAAAAAACAUGAGGAUCACCCAUGUAGAAGGACCAAAAA [Ex 2 sub 1 70% 3]” the “apparent KD of MS2 coat protein” value was 36.5 nM.
With “AAGAAGUCAGGAUAUGCUGCUCGUCACUUGCGUGAUGAGUAGCAGAAGGGACAUGAGGAUCACCCAUGUGGAAA [Modifying Chris (69%) Late G segment 2]” the “apparent KD of MS2 coat protein” value was 123 nM.
In the case of “AAAAAACAUGAGGAUCACCCAUGUAAGGAUAUGCUAGGAAAAAGAAAAAUAAAAACUAGCAGAAGGUACAUUAA [JL wbt mod 9]”, the “apparent KD of MS2 coat protein” value is reported as 26.6 nM.
“GUAGUGUGAGGAUAUGGAUAGAAGAAGUGAAAGUAAGAGAACUAGAAGGCACAUGAGGAUCACCCAUGUAUGUG [JR_Exc004_Sub1701]” was tested, and the “apparent KD of MS2 coat protein” value was 41.4 nM.
In the case of “CUCUUGUGAGGAUAUUGAAGAAAAGAAGAGAAAGAAAAGAACAAGAAGGCACAUGAGGAUCACCCAUGUAAGAA [EteRNA is fun!]”, the “apparent KD of MS2 coat protein” value is reported as 37.9 nM.
In the case of “AAGAAGUAAGGAUAUACAAGAAAGAAAGAAAAGAAAAGAAAACAUGAGGAUCACCCAUGUAGAAGGUACUAGAA [EteRNA is fun!]”, the “apparent KD of MS2 coat protein” value is reported as 24.1 nM.
In the case of “AGCUAGUCAGGAUAUACGCAAACGAACGAAGCUGAGAAGGGACAUGAGGAUCACCCAUGUAGAAGGGACUAGCA [Diamond 32]”, the “apparent KD of MS2 coat protein” value is reported as 25.3 nM.
“AAGGGACAUGAGGAUCACCCAUGUCAGGAUAUGAUGCGAAUAAAGAAAGAAUAAAGCAUCAGAAGGGACGCCAA [Mat - Exclusion 1 - Eli mod - D65]” was tested, and the “apparent KD of MS2 coat protein” value was 21.1 nM.
In the case of “UAUAACGAAGGAUAUACUAACGAAACUAAUGCAUAUAUAUAACAUGAGGAUCACCCAUGUAGAAGGUCGAGAAU [JR_Exc002_Sub011]”, the “apparent KD of MS2 coat protein” value is reported as 23.7 nM.
With “AAACCACAUGAGGAUCACCCAUGUAAGGAUAUGAACGAAAUAAAAUAAAAAUAAAAGUUCAGAAGGUACAAAAA [Mat - Exclusion 1 - Eli mod - D22]” the “apparent KD of MS2 coat protein” value was 22.6 nM.
“AGAAAGUCAGGAUAUACGAAAGUGCGAAAGCACAAAAGGGAACAUGAGGAUCACCCAUGUAGAAGGGACAAGAA [Diamond 77]” was tested, and the “apparent KD of MS2 coat protein” value was 91.4 nM.
“GGUUGGCGAGGAUAUACAUGAGGAUCACCCAUGUGAGAGGAAAAAGUGAGGAGGAGAAGUAGAAGGCGCUGACG [salish99-ex3-22]” was tested, and the “apparent KD of MS2 coat protein” value was 29.6 nM.
With “AGUUGGCGAGGAUAUACAUGAGGAUCACCCAUGUGAAAGAAAAACUCGAAAGAGAAAAGUAGAAGGCGCUGACA [Mat - Exclusion 3 - Eli mod - D93]” the “apparent KD of MS2 coat protein” value was 16.8 nM.
“CUCAAGUGAGGAUAUACGAAUAGUAAGUAAGUAUAACAGACGUAGAAGGCACAUGAGGAUCACCCAUGUAAAUA [JR_Exc004_Sub303]” was tested, and the “apparent KD of MS2 coat protein” value was 36.2 nM.
In the case of “CCAAGACAUGAGGAUCACCCAUGUGAGGAUAUAGGUGUAUGCAAAAAAAAGUUAAAAACUAGAAGGCACAGAAA [JR_Exc001_Sub306]”, the “apparent KD of MS2 coat protein” value is reported as 30.7 nM.
